Positions count from the first letter of the chain named. In names and notes the source's numbering stands.
T1: human α-CGRP (Homo sapiens, UniProt P06881)
T1 construct: 1-37 (WT); purchased; host or cells: synthetic peptide
T1 sequence (P06881 83-119 limits assumed): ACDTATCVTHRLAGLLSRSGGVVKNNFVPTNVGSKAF

T2: rat α-CGRP (Rattus norvegicus, UniProt P01256)
T2 construct: rat α (1-37); host or cells: synthetic peptide
T2 sequence (P01256 83-119 limits assumed): T1 sequence (P06881 83-119 limits assumed) with A1S, D3N, N25D, K35E

B1: M46: G1 variant: L1 R28N; L2 G50A,L56T; H2 E54K,A57N,S58E,H61F; HC-FW3 L99T,A100V (antibody, V domains shown)
VH: EVQLVESGGGLVQPGGSLRLSCAASGFTFSNYWISWVRQAPGKGLEWVAEIRSKSDNEATFYAEAVKGRFTISRDNAKNSLYLQMNSLRAEDTAVYYCTVYFDYGLAIQNYWGQGTLVTVSS
VL: EIVLTQSPATLSLSPGERATLSCKASKNVTTYVSWYQQKPGQAPRLLIYAASNRYTGIPARFSGSGSGTDFTLTISSLEPEDFAVYYCSQSYNYPYTFGQGTKLEIK
B2: M49: G1 variant: L1 R28N; L2 G50A,L56T; H2 E54K,A57N,S58Y,H61F; HC-FW3 L99T,A100V (antibody, V domains shown)
VH: B1 VH with E58Y
VL: B1 VL
B3: M65: G1 variant: L1 R28N,T30G; L2 G50A,L56I; H2 E54K,A57C; HC-FW3 L99T,A100V (antibody, V domains shown)
VH: B1 VH with N57C, E58S, F61H
VL: B1 VL with T30G, T56I
B4: M59: G1 variant: L1 R28N,T30D; L2 L56S; H2 E54K,A57N,S58N,H61F; HC-FW3 L99T,A100V (antibody, V domains shown)
VH: B1 VH with E58N
VL: B1 VL with T30D, A50G, T56S
B5: M50: G1 variant: L1 R28N; L2 G50A,L56T; H2 E54K,A57R; HC-FW3 L99T,A100V (antibody, V domains shown)
VH: B1 VH with N57R, E58S, F61H
VL: B1 VL
B6: M55: G1 variant: L1 R28N,T30A; L2 L56S; H2 E54K,A57N,S58E,E64D; HC-FW3 L99T,A100V (antibody, V domains shown)
VH: B1 VH with F61H, E64D
VL: B1 VL with T30A, A50G, T56S
B7: M51: G1 variant: L1 R28N; L2 L56I; H2 E54K,A57G; HC-FW3 L99T,A100V (antibody, V domains shown)
VH: B1 VH with N57G, E58S, F61H
VL: B1 VL with A50G, T56I
B8: M62: G1 variant: L1 R28N,T30G; L2 A51H,L56T; H2 E54K,A57N,S58E; HC-FW3 L99T,A100V (antibody, V domains shown)
VH: B1 VH with F61H
VL: B1 VL with T30G, A50G, A51H
B9: M64: G1 variant: L1 R28N,T30G; L2 G50A; H2 E54K,A57N,S58V; HC-FW3 L99T,A100V (antibody, V domains shown)
VH: B1 VH with E58V, F61H
VL: B1 VL with T30G, T56L
B10: M60: G1 variant: L1 R28N,T30D; L2 L56S; H2 E54K,A57N,S58R,H61F; HC-FW3 L99T,A100V (antibody, V domains shown)
VH: B1 VH with E58R
VL: B1 VL with T30D, A50G, T56S
B11: M63: G1 variant: L1 R28N,T30G; L2 G50A; H2 E54K,A57N,S58T; HC-FW3 L99T,A100V (antibody, V domains shown)
VH: B1 VH with E58T, F61H
VL: B1 VL with T30G, T56L
B12: M61: G1 variant: L1 R28N,T30G; L2 A51H; H2 E54Q,A57N,H61F; HC-FW3 L99T,A100V (antibody, V domains shown)
VH: B1 VH with K54Q, E58S
VL: B1 VL with T30G, A50G, A51H, T56L
B13: M67: G1 variant: L1 R28N,T30G; L2 L56I; H2 E54K,A57F; HC-FW3 L99T,A100V (antibody, V domains shown)
VH: B1 VH with N57F, E58S, F61H
VL: B1 VL with T30G, A50G, T56I
B14: M58: G1 variant: L1 R28N,T30D; L2 L56S; H2 E54K,A57N,S58I,H61F; HC-FW3 L99T,A100V (antibody, V domains shown)
VH: B1 VH with E58I
VL: B1 VL with T30D, A50G, T56S
B15: M66: G1 variant: L1 R28N,T30G; L2 L56I; H2 E54K,A57E; HC-FW3 L99T,A100V (antibody, V domains shown)
VH: B1 VH with N57E, E58S, F61H
VL: B1 VL with T30G, A50G, T56I
B16: M48: G1 variant: L1 R28N; L2 G50A,L56T; H2 E54K,A57N,S58L; HC-FW3 L99T,A100V (antibody, V domains shown)
VH: B1 VH with E58L, F61H
VL: B1 VL
B17: M53: G1 variant: L1 R28N; L2 L56I; H2 E54K,A57N,S58G; HC-FW3 L99T,A100V (antibody, V domains shown)
VH: B1 VH with E58G, F61H
VL: B1 VL with A50G, T56I
B18: M57: G1 variant: L1 R28N,T30D; L2 L56S; H2 E54K,A57N,S58E; HC-FW3 L99T,A100V (antibody, V domains shown)
VH: B1 VH with F61H
VL: B1 VL with T30D, A50G, T56S
B19: M52: G1 variant: L1 R28N; L2 L56I; H2 E54K,A57N,S58A; HC-FW3 L99T,A100V (antibody, V domains shown)
VH: B1 VH with E58A, F61H
VL: B1 VL with A50G, T56I
B20: M56: G1 variant: L1 R28N,T30D; L2 L56S; H2 E54K,A57N,H61F; HC-FW3 L99T,A100V (antibody, V domains shown)
VH: B1 VH with E58S
VL: B1 VL with T30D, A50G, T56S
B21: M54: G1 variant: L1 R28N,T30A; L2 G50A; H2 E54K,A57N,S58P; HC-FW3 L99T,A100V (antibody, V domains shown)
VH: B1 VH with E58P, F61H
VL: B1 VL with T30A, T56L
B22: M47: G1 variant: L1 R28N; L2 G50A,L56T; H2 E54K,A57N,S58G; HC-FW3 L99T,A100V (antibody, V domains shown)
VH: B1 VH with E58G, F61H
VL: B1 VL

Each molecule was assayed against T1, human α-CGRP (assay: Biacore affinity of antibody G1 Fab and variants to human α-CGRP). Settings: 37° C., Fab, screening mode unless underlined.
Assay type: binding
Method: (§1) Biacore assay for affinity determination. […] All Biacore assays were conducted in HBS-EP running buffer (10 mM HEPES pH 7.4, 150 mM NaCl, 3 mM EDTA, 0.005% v/v polysorbate P20). CGRP surfaces were prepared by diluting the N-biotinylated CGRP to a concentration of less than 0.001 mg/mL into HBS-EP buffer and injecting it across the SA sensor chip using variable contact times. Low capacity surfaces, corresponding to capture levels <50 response units (RU) were used for high-resolution kinetic studies, whereas high capacity surfaces (about 800 RU of captured CGRP) were used for concentration studies, screening, and solution affinity determinations. […] Samples were typically injected for lminute at 100 μL/min and dissociation times of at least 10 minutes were allowed. After each binding cycle, surfaces were regenerated with 25 mM NaOH in 25% v/v ethanol, which was tolerated over hundreds of cycles. An entire titration series (typically generated in duplicate) was fit globally to a 1:1 Langmuir binding model using the BlAevaluation program. This returned a unique pair of association and dissociation kinetic rate constants (respectively, kon and koff) for each binding interaction, whose ratio gave the equilibrium dissociation constant (KD=koff/[…]).
(§2) High-resolution analysis of binding interactions with extremely slow offrates. […] The protocol described above was used with the following modifications. The association rate constant (kon) was determined by injecting a 2-fold titration series (in duplicate) spanning 550 nM-1 nM for 30 seconds at 100 μL/min and allowing only a 30 second dissociation phase. The dissociation rate constant (koff) was determined by injecting three concentrations (high, medium, and low) of the same titration series in duplicate for 30 seconds and allowing a 2-hour dissociation phase. The affinity (KD) of each interaction was obtained by combining the kon and koff values obtained in both types of experiments, as shown in Table 4.
(§3) The binding affinities of Fab fragments were determined by Biacore by flowing them across CGRPs on a SA chip.

| α-human koff | Molecule |
| --- | --- |
| 0.000539 s⁻¹ | B1 |
| 0.000595 s⁻¹ | B2 |
| 0.000803 s⁻¹ | B3 |
| 0.000524 s⁻¹ | B4 |
| 0.000406 s⁻¹ | B5 |
| 0.000478 s⁻¹ | B6 |
| 0.000131 s⁻¹ | B7 |
| 0.000557 s⁻¹ | B8 |
| 0.00132 s⁻¹ | B9 |
| 0.000911 s⁻¹ | B10 |
| 0.0015 s⁻¹ | B11 |
| 0.000459 s⁻¹ | B12 |
| 0.00082 s⁻¹ | B13 |
| 0.00195 s⁻¹ | B14 |
| 0.00052 s⁻¹ | B15 |
| 0.000842 s⁻¹ | B16 |
| 0.000374 s⁻¹ | B17 |
| 0.000322 s⁻¹ | B18 |
| 0.000281 s⁻¹ | B19 |
| 0.000479 s⁻¹ | B20 |
| 0.00179 s⁻¹ | B21 |
| 0.000332 s⁻¹ | B22 |

The molecules below were run against T2, rat α-CGRP (assay: Biacore affinity of antibody G1 Fab and variants to rat α-CGRP). Settings: 37° C., Fab, screening mode unless underlined.
Assay type: binding
Method: as §1, §2, §3

| α-rat koff | Molecule |
| --- | --- |
| 0.00294 s⁻¹ | B1 |
| 0.0148 s⁻¹ | B2 |
| 0.00407 s⁻¹ | B3 |
| 0.0123 s⁻¹ | B4 |
| 0.0053 s⁻¹ | B5 |
| 0.00585 s⁻¹ | B6 |
| 0.00118 s⁻¹ | B7 |
| 0.00575 s⁻¹ | B8 |
| 0.0234 s⁻¹ | B9 |
| 0.0272 s⁻¹ | B10 |
| 0.00265 s⁻¹ | B11 |
| 0.00521 s⁻¹ | B12 |
| 0.00171 s⁻¹ | B13 |
| No binding | B14 |
| 0.00511 s⁻¹ | B15 |
| 0.0343 s⁻¹ | B16 |
| 0.00191 s⁻¹ | B17 |
| 0.0104 s⁻¹ | B18 |
| 0.00229 s⁻¹ | B19 |
| 0.00935 s⁻¹ | B20 |
| 0.00216 s⁻¹ | B21 |
| 0.00823 s⁻¹ | B22 |

From US10766952B2, “Methods for reducing migraine frequency in a subject in need thereof” (Beth Israel Deaconess Medical Center, Inc., priority 2017, dated 2020)
